The values that follow come from US12723105.

In test [1] the target is CD47 (UniProt Q08722). Nature of the test: competitive ELISA vs SIRPα. Background: An ELISA detects its analyte on a solid surface through an enzyme-linked reagent.
The target in test [2] is CD47 (UniProt Q08722). Nature of the test: flow cytometry, CD47-overexpressing cells. (In general: In flow cytometry, cells or beads pass a laser one at a time.)

B6H12 gave an IC50 with CD47 [1] of 0.499 nM. The EC50 in the test with CD47 [2] is 5.59 nM.

The term IC50 denotes the concentration needed to halve the response being measured. A higher IC50 goes with lower potency. A word on the EC50: it is the concentration needed to bring the measured effect to its halfway point.
